Test results as given in PMC4564277, “Biochemical and Structural Insights into the Mechanism of DNA Recognition by Arabidopsis [sequence] INSENSITIVE3” (PLoS ONE, 2015).

Tests used:
[1] = target: the molecule itself; assay: SEC-MALS; Superdex 200 analytical column, 1 ml/min, 10 mM Tris–HCl pH 7.5, 100 mM NaCl, 1 mM DTT, 4°C; no DNA
[2] = target: T1, EIN3 82-352 (optimal DBD) (Arabidopsis thaliana, UniProt O24606 82-352); assay: EMSA; EMSA: 1 nM biotin probe, 10 mM Tris-HCl pH 7.5, 40 mM KCl, 3 mM MgCl2, 1 mM EDTA, 10% glycerol, 1 mM DTT, 1 ug poly(dI-dC) in 20 uL, room temperature, 30 min; details: protein: recombinant, tags: N-terminal His6 (pET-28a), chain copies: 2
T1 sequence: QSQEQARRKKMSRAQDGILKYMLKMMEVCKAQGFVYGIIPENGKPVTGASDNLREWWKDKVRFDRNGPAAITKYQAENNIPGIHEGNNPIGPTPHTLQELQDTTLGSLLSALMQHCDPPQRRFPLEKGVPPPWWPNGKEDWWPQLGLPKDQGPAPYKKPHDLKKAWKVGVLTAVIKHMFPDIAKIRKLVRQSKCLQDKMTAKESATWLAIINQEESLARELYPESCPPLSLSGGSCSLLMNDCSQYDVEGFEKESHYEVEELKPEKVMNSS

EIN3 82-352 P216S = target: T2, EIN3 82-352 P216S (Arabidopsis thaliana, UniProt O24606 82-352, P216S); assay: as above; details: protein: recombinant; tags: N-terminal His6 (pET-28a); chain copies: 2; label: 3' biotin on forward strand; blunt
T2 sequence: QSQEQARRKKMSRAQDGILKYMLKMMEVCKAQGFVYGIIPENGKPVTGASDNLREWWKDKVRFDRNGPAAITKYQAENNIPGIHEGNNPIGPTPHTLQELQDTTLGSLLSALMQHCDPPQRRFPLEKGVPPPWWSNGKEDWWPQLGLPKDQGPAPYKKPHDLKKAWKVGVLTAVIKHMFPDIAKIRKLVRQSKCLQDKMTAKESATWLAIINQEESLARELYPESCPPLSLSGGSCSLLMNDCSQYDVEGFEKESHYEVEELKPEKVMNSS

EIN3 68-352 = target: T3, EIN3 68-352 (Arabidopsis thaliana, UniProt O24606 68-352); assay: as above; details: protein: recombinant; tags: N-terminal His6 (pET-28a); chain copies: 2; label: 3' biotin on forward strand; blunt
T3 sequence: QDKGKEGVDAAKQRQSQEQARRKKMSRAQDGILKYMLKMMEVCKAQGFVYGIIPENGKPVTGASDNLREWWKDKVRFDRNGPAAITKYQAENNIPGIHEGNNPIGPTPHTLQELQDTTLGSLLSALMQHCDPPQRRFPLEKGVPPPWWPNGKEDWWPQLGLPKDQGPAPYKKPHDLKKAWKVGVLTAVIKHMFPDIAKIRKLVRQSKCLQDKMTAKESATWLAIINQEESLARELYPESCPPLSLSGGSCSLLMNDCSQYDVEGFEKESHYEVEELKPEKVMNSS

EIN3 91-352 = target: T4, EIN3 91-352 (Arabidopsis thaliana, UniProt O24606 91-352); assay: as above; details: protein: recombinant; tags: N-terminal His6 (pET-28a); chain copies: 2; label: 3' biotin on forward strand; blunt
T4 sequence: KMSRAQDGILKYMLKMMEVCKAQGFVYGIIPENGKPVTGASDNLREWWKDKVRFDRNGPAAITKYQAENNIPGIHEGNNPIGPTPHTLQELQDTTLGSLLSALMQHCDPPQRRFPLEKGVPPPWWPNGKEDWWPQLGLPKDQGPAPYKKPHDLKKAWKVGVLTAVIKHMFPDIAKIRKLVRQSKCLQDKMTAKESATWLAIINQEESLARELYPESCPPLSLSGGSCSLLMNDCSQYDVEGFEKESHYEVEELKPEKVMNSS

EIN3 98-352 = target: T5, EIN3 98-352 (Arabidopsis thaliana, UniProt O24606 98-352); assay: as above; details: protein: recombinant; tags: N-terminal His6 (pET-28a); chain copies: 2; label: 3' biotin on forward strand; blunt
T5 sequence: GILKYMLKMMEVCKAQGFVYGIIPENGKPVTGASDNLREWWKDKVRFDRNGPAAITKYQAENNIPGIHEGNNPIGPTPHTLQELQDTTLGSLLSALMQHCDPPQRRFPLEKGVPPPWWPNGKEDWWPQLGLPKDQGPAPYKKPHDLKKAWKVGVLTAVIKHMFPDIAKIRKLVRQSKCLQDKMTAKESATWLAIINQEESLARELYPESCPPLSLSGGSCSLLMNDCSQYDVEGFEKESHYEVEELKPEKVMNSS

EIN3 1-352 = target: T6, EIN3 1-352 (Arabidopsis thaliana, UniProt O24606 1-352); assay: as above; details: protein: recombinant; tags: N-terminal His6 (pET-28a); chain copies: 2; label: 3' biotin on forward strand; blunt
T6 sequence: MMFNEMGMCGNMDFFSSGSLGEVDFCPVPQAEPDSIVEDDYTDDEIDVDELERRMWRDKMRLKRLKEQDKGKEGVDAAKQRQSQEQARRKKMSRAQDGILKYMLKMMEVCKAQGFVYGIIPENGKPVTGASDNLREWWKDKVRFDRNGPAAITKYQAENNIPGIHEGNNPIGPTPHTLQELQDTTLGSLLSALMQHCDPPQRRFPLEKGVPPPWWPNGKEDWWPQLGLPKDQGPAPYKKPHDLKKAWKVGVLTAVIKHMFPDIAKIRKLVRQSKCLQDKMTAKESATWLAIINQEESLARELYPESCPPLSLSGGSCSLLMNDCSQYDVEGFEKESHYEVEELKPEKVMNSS

[3] = target: T1, EIN3 82-352 (optimal DBD); assay: as above; details: protein: recombinant; tags: N-terminal His6 (pET-28a); chain copies: 2; label: 3' biotin on forward strand; blunt
[4] = target: T1, EIN3 82-352 (optimal DBD); assay: EMSA; tighter than ERF1; EMSA: 1 nM biotin probe, 10 mM Tris-HCl pH 7.5, 40 mM KCl, 3 mM MgCl2, 1 mM EDTA, 10% glycerol, 1 mM DTT, 1 ug poly(dI-dC) in 20 uL, room temperature, 30 min; details: protein: recombinant; tags: N-terminal His6 (pET-28a); chain copies: 2; label: 3' biotin on forward strand; blunt
[5] = label: 3' biotin on forward strand, blunt

B1: EIN3 82–352 (optimal DNA-binding domain of Arabidopsis ETHYLENE …3) (domain or fragment, UniProt O24606 82-352, looked up)
chain: QSQEQARRKKMSRAQDGILKYMLKMMEVCKAQGFVYGIIPENGKPVTGASDNLREWWKDKVRFDRNGPAAITKYQAENNIPGIHEGNNPIGPTPHTLQELQDTTLGSLLSALMQHCDPPQRRFPLEKGVPPPWWPNGKEDWWPQLGLPKDQGPAPYKKPHDLKKAWKVGVLTAVIKHMFPDIAKIRKLVRQSKCLQDKMTAKESATWLAIINQEESLARELYPESCPPLSLSGGSCSLLMNDCSQYDVEGFEKESHYEVEELKPEKVMNSS
notes: numbering based on UniProt O24606; Cloned into NheI/BamHI of pET-28a; Printed predicted Mw: monomer 31.29 kDa, dimer 62.58 kDa; also called optimal DBD; EIN3 truncation 82–352; source: E. coli Transetta (DE3), purified (Ni-NTA, Superdex 75 size exclusion)
- stoichiometry N [1]: 2

B2: 2EBS-S10 (dsDNA)
DNA 1: AAGATACATGCAAAAAAGCATGTATCTT
DNA 2: AAGATACATGCTTTTTTGCATGTATCTT
- Kd [2, 5]: ~110 nM

B3: 2EBS-S10-R (dsDNA)
DNA 1: AAGATGTATGCAAAAAAGCATACATCTT
DNA 2: AAGATGTATGCTTTTTTGCATACATCTT
- Kd [2, 5]: ~1240 nM

B4: 1EBS-S10 (dsDNA)
DNA 1: AAGATACATGCAAAAAAGCGATCGACTT
DNA 2: AAGTCGATCGCTTTTTTGCATGTATCTT
- Kd [2, 5]: ~690 nM

B5: ERF1 (dsDNA)
DNA 1: GTTGTTTGGGATTCAAGGGGCATGTATCTTGAATCC
DNA 2: GGATTCAAGATACATGCCCCTTGAATCCCAAACAAC
- binding result (EIN3 82-352 P216S): binds
- binding result (EIN3 68-352): binds
- binding result (EIN3 91-352): binds
- binding result (EIN3 98-352): binds
- binding result (EIN3 1-352): binds
- binding result [2, 5]: binds

B6: 0EBS-S10 (dsDNA)
DNA 1: AAGTCGATCGCAAAAAAGCGATCGACTT
DNA 2: AAGTCGATCGCTTTTTTGCGATCGACTT
- Kd [2, 5]: ~2280 nM

B7: 2EBS-S5 (dsDNA)
DNA 1: AAGATACATGCAGCATGTATCTT
DNA 2: AAGATACATGCTGCATGTATCTT
- binding signal [3]: ~15 fold higher Kd than 2EBS-S10

B8: 2EBS-S10-36 (dsDNA)
DNA 1: TGAAGATACATGCAATTAAGCATGTATCTTGAATCC
DNA 2: GGATTCAAGATACATGCTTAATTGCATGTATCTTCA
- binding result [4]: binds

B9: 2EBS-S8 (dsDNA)
DNA 1: AAGATACATGCAAAAGCATGTATCTT
DNA 2: AAGATACATGCTTTTGCATGTATCTT
- binding signal [3]: ~3 fold higher Kd than 2EBS-S10

B10: 2EBS-S10-2 (dsDNA)
DNA 1: AAGGTACATGCAAAAAAGCATGTACCTT
DNA 2: AAGGTACATGCTTTTTTGCATGTACCTT
- binding result [2, 5]: binds

Binder: AAGATACATGCAAAAAAGCATGTATCTT (ssDNA) [2EBS-S10-F]
- binding result ([2]; label: 3' biotin, single strand): no binding
